Reference: IntAct's records for PubMed 19682256

B1: Aerobic respiration control sensor protein ArcB (Escherichia coli (strain K12)), P0AEC3 (parent)
chain: MKQIRLLAQYYVDLMMKLGLVRFSMLLALALVVLAIVVQMAVTMVLHGQVESIDVIRSIFFGLLITPWAVYFLSVVVEQLEESRQRLSRLVQKLEEMRERDLSLNVQLKDNIAQLNQEIAVREKAEAELQETFGQLKIEIKEREETQIQLEQQSSFLRSFLDASPDLVFYRNEDKEFSGCNRAMELLTGKSEKQLVHLKPADVYSPEAAAKVIETDEKVFRHNVSLTYEQWLDYPDGRKACFEIRKVPYYDRVGKRHGLMGFGRDITERKRYQDALERASRDKTTFISTISHELRTPLNGIVGLSRILLDTELTAEQEKYLKTIHVSAVTLGNIFNDIIDMDKMERRKVQLDNQPVDFTSFLADLENLSALQAQQKGLRFNLEPTLPLPHQVITDGTRLRQILWNLISNAVKFTQQGQVTVRVRYDEGDMLHFEVEDSGIGIPQDELDKIFAMYYQVKDSHGGKPATGTGIGLAVSRRLAKNMGGDITVTSEQGKGSTFTLTIHAPSVAEEVDDAFDEDDMPLPALNVLLVEDIELNVIVARSVLEKLGNSVDVAMTGKAALEMFKPGEYDLVLLDIQLPDMTGLDISRELTKRYPREDLPPLVALTANVLKDKQEYLNAGMDDVLSKPLSVPALTAMIKKFWDTQDDEESTVTTEENSKSEALLDIPMLEQYLELVGPKLITDGLAVFEKMMPGYVSVLESNLTAQDKKGIVEEGHKIKGAAGSVGLRHLQQLGQQIQSPDLPAWEDNVGEWIEEMKEEWRHDVEVLKAWVAKATKK
B2: Phage shock protein B (Escherichia coli (strain K12)), P0AFM9 (parent)
chain: MSALFLAIPLTIFVLFVLPIWLWLHYSNRSGRSELSQSEQQRLAQLADEAKRMRERIQALESILDAEHPNWRDR
partner: B1 chain
B3: Aerobic respiration control sensor protein ArcB (Escherichia coli (strain K12)), P0AEC3 (parent)
chain: B1 chain
partner: B2 chain

Variants of: B1
Settings: with pspa_ecoli pspA

Row | Variant | effect of a mutation on the interaction
1 | L87A;L90A;L94A;M97A | decreasing interaction strength

Variants of: B2
Settings: with arcb_ecoli arcB, P0AEC3

Row | Variant | effect of a mutation on the interaction
2 | L10A;L15A;L18A | decreasing interaction strength

Variants of: B3
Settings: with pspb_ecoli pspB, P0AFM9

Row | Variant | effect of a mutation on the interaction
3 | L87A;L90A;L94A;M97A | decreasing interaction strength
